Measured values reported in patent US20110237779A1 (Genentech, published 2011).
Changes are numbered by the printed parent chain. Numbers in names are those of the source.

B1: D3 direct hypervariable region graft on the acceptor human consensus framework (Fab displayed on phage) (Fab, V domains shown)
VH: EVQLVESGGGLVQPGGSLRLSCAASGFNIKDYYMHWVRQAPGKGLEWVGWIDPENGNTIYDPKFQDRFTISADTSKNTAYLQMNSLRAEDTAVYYCARDTAAYFDYWGQGTLVTVSS
VL: DIQMTQSPSSLSASVGDRVTITCKASRDIKSYLSWYQQKPGKAPKLLIYYATSLADGVPSRFSGSGSGTDFTLTISSLQPEDFATYYCLQHGESPFTFGQGTKVEIK
notes: Monovalent Fab-g3 phage display: light chain, and VH-CH1 followed by the minor phage coat protein P3; Kabat numbering; No framework changes; also called D3 grafted variant; D3 graft
B2: D3 library clone, CDR-L3 LSDGSSPFT (Fab, V domains shown)
VH: B1 VH
VL: B1 VL with Q90S, H91D, E93S
notes: Changes against the D3 direct graft (Kabat): VL Q90S, H91D, E93S; copies: 1 + 1

Experiments:
human tissue factor [1] = biological target: T1, human tissue factor (human, UniProt P13726 33-251, limits assumed); assay: phage ELISA, Fab on phage, competition with antigen in solution
T1 construct: construct not described; also called TF

human tissue factor [2] = biological target: T1, human tissue factor; assay: phage ELISA, solution competition: Fab-phage incubated with serially diluted TF, unbound phage captured on TF-coated wells; IC50 used as affinity estimate

Binder | IC50 (human tissue factor [1]) | IC50 (human tissue factor [2])
B1 | 20 nM | 19 nM
B2 | – | 15 nM
